According to US20160002297A1, “THERAPEUTIC AGENTS” (NATIONAL UNIVERSITY OF SINGAPORE, priority 2013, published 2016):
Positions of bridges follow the written chain, without caps; N, C: chain ends. No end group written: not given here. *: point of attachment. FITC = O=C1OC2(c3ccc(O)cc3Oc3cc(O)ccc32)c2ccc(NC(=S)*)cc21

Legend:
[1] = biological target: T1, GRP78, purified recombinant protein (UniProt P11021 19-654, limits assumed); assay: ELISA solid phase-binding assay, GRP78 titrated on the coated ligand
T1 construct: also called glucose-regulated protein 78 kDa; BiP

[2] = test system: 4T1 breast carcinoma cells; assay: FITC-RKD binding to the 4T1 breast cancer cell surface in vitro; assay type: cell-based; details: 24 h treatment
Description: FIG. 12a FITC-RKD peptide binds to cell-surface GRP78. […] 4T1 breast carcinoma cells were treated with FITC-RKD (green) 24 h. Cells were fixed and stained by Phalloidin (red) to represent the cell outline. Nuclei were counter stained by DAPI (blue).

HUVECs [3] = assay: Uptake of FITC-labelled peptide by cultured HUVECs; assay type: cell-based, human; details: compared to FITC-labeled cRAA peptide
From the text: FIG. 11 FITC-RKD peptide enters cultured HUVECs likely by endocytosis;

GRP78 [4] = biological target: T2, GRP78 (Homo sapiens, UniProt P11021); assay: Co-immunoprecipitation with GRP78; assay type: binding
Description: (§1) The membrane fraction of HUVECs was isolated by using Mem-PER Eukaryotic Membrane Protein Extraction Kit which was also obtained from Pierce (Rockford, Ill., USA).
1 μg antibodies of GRP78 were pre-immobilized on 20 μl protein A/G agarose beads from Santa Cruz (Santa Cruz, Calif., USA) for 1 h at room temperature. Unbound antibodies were washed out by 100 mM Tris-Hcl (pH 8.0). Then 1 μg ISM and 1 μg GRP78 (or 1 mg membrane fraction protein lysates containing GRP78) were incubated with GRP78 antibody mounted beads for 4 h at 4° C. After removing the unbound proteins, precipitates were resolved by SDS-PAGE and analyzed for the presence of ISM, GRP78 or AACs by Western blotting.
Target sequence in this assay (P11021 19-654, species assumed): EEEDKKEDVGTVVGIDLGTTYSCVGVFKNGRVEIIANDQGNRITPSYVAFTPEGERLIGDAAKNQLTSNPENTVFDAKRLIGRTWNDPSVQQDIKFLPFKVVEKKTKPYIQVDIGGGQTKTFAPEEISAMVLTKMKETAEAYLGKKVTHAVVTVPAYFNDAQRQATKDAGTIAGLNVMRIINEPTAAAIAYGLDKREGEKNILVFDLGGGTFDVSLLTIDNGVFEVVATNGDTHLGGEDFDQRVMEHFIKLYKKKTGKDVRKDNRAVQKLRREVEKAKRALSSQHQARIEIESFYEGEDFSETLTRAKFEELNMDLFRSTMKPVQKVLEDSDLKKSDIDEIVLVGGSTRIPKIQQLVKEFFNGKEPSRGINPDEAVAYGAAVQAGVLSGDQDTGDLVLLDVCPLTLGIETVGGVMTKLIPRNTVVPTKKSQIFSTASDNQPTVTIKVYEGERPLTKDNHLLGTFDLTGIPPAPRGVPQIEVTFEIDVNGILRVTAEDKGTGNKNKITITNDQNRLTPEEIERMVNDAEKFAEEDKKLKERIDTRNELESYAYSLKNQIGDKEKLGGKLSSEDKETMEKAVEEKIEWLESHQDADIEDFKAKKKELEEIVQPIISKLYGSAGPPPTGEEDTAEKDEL

B16 melanoma = assay: FITC-RKD targeting to subcutaneous B16 tumor in mice after intravenous delivery; assay type: in vivo, mouse; details: delivered intravenously
From the text: FIG. 9 FITC labelled cRKD (FITC-RKD) targets to subcutaneous B16 tumor in mice when delivered intravenously.
FIG. 10 FITC-RKD targets both the B16 melanoma tumor cells and tumor ECs when delivered intravenously;

ECs = assay: Cell attachment (EC adhesion) assay; assay type: cell-based; details: peptide coated on plastic surface
Description: 96-well plates were coated with 50 μl of 1 μM ISM at 4° C. overnight. Nonspecific binding sites were blocked with 1% BSA for 2 h at 37° C. ECs were harvested and incubated in CSC basal medium containing 4 μg/ml neutralizing antibodies or control IgG for 30 min. 2[…]104 cells were plated to each well and allowed to attach for 60 min at 37° C. Attached cells were fixed by 10% formalin and stained with 0.2% crystal violet. Absorbed crystal violet was extracted by 10% acetic acid and quantified by measuring the absorbance of eluted dye at 595 nm with a microplate reader.

endothelial cells (ECs) = assay: Apoptosis assay (Cell Death ELISA) in cultured ECs; assay type: cell-based
Description: ECs (2×10^4 cells per well) in 96-well plate were starved in 2% FBS basal CSC medium for 3 h. Cells were then incubated with peptides of various concentrations and 15 ng/ml VEGF for 24 h. Apoptosis was detected by measuring cytosolic oligonucleosome-bound DNA using a Cell Death ELISA kit purchased from Roche (USA). Plots represented the mean of 3 wells of apoptotic cells in 96 well plate (±SEM).

HUVECs [5] = assay: Tube formation assay on Matrigel; assay type: cell-based, human
Description: HUVECs (1×10^4) were pre-treated with peptides of various concentrations for 30 min before being plated onto the polymerized Matrigel (Millipore, USA) in 15-well μ-slide (Ibidi, Germany). After 4-6 h, capillary network was documented using Zeiss Axiovert200 inverted microscope (Maple Grove, Minn., USA). Tube length was quantified by measuring the length of branches in representative fields using ImageJ software. Plots represented the mean of 3 wells of tubular length in 15-well μ-slide (t SEM).

GRP78 [6] = biological target: T2, GRP78; assay: ELISA solid phase-binding assay for binding affinity to GRP78
Description: (§2) ELISA solid phase-binding assay was used to determine the dissociation constant between ISM or cyclic peptide and GRP78 as previously described with minor modification (Nishiuchi, Takagi et al. 2006). 96-well plates were coated with 50 μl of 10 nM cyclic peptide at 4° C. overnight. Nonspecific binding sites were blocked with 1% BSA for 2 h at room temperature. Increasing concentrations of GRP78 were incubated with immobilized cyclic peptide. After washing, the amount of bound GRP78 was quantified by ELISA. The value for Kd was calculated by GraphPad Prism software.
Target sequence in this assay (P11021 19-654, species assumed): as above

[7] = biological target: T1, GRP78, purified recombinant protein; assay: ELISA solid phase-binding assay, compared with cRKD
Description: as §2
Using similar ELISA method, we determined the binding affinity between kRKD peptide and GRP78 using purified recombinant GRP78 protein.

B16F10 melanoma = assay: Mouse tumorigenesis: subcutaneous B16F10 melanoma, intravenous treatment from day 0; assay type: in vivo
Description: FIG. 4 Recombinant ISM and ISM derived cRKD peptide inhibit B16F10 tumour growth in vivo. A. Tumour growth curve in mice. X-axis represents the days after 5×10^5 tumour cell inoculation. Groups consisted of control mice receiving no treatment, recombinant ISM, cRKD peptide and its control-cyclic RAA peptide, given in six doses of 250 μg/mouse through tail vein injection on days 0, 2, 4, 6, 8, and 10 (5 mice in each group, each mice with one tumour). **: p<0.01,*: p<0.05, n=5. B. Tumour weight at the end of the experiment (14 days after tumour cell inoculation). C. Recombinant ISM and cRKD peptide inhibits B16F10 tumour growth. […] Paraffin sections of tumors from mice groups treated by control, ISM, cRAA and cRKD peptides were probed for microvessel density, tumor cell proliferation and apoptosis through immunofluoresence staining using anti-CD31 (A), anti-PCNA (B) and TUNEL staining (C) respectively. Representative photos are shown. (D) Quantification of microvessel density. Microvessel density is the number of microvessels per microscopic field. (E) Quantification of cell proliferation in tumor sample. Cell proliferation is presented as the percentage of PCNA positive cells out of the total number of cells (DAPI positive cells) in the microscopic field. (F) Quantification of apoptosis in tumor. Apoptosis is quantified as the percentage of TUNEL positive cells out of the total number of cells (DAPI positive cells) in the microscopic field. Plots represent the mean of 3 fields per section, 3 sections per tumor and 2 tumors per group (±SEM). ** P≦0.01, * P≦0.05; Adult 8-week-old female C57BL/6J mice were used in this study. Animal care and experimentation was carried out under the institutional guidelines issued by the local institutional animal care and use committee (IACUC; protocol 066/12). 5×10^5 B16F10 cells in 0.1 ml PBS were injected subcutaneously into the dorsal left flank of the mouse. Twenty mice were assigned into 4 different groups consisted of control mice receiving no treatment, recombinant ISM, cyclic RKD peptide and its peptide control-cyclic RAA peptide, given in six doses of 250 μg through tail vein injection on days 0, 2, 4, 6, 8, and 10 (5 mice in each group, each mice with one tumor). Health status of the mice was monitored over two weeks and visible tumor size were measured daily by calipers after 8 days until the end point (day 14). Tumor volume was calculated using the following formula: 0.52×length×(width)^2 mm^3, where the largest dimension of the tumor is considered as the length and the width is the perpendicular dimension. On day 14, mice were sacrificed, and their dorsal flank was opened and photographed to exam the vascularization. Then tumors were excised and weighed followed by either fixing in 4% paraformaldehyde for sectioning or snap-freezing in liquid nitrogen for further analysis. Paraffin-embedded tissue sections of 5 μm were deparaffinized by heating at 60° C. for 7 minutes before deparaffinizing in histoclear followed by the rehydration in graded series of alcohol (100%, 90%, 80%, and 70% ethanol in ddH2O) and finally in PBS for 5 minutes. Antigen retrieval was done in a bench-top 2100-Retriever according to the protocol of the manufacturer (Electron Microscopy Sciences, Hatfield, Pa.). The sections were blocked with 3% bovine serum albumin (BSA) in a humidified chamber for 1 hour at room temperature followed by overnight incubation with the anti-CD31 (Santa Cruz Biotechnology, Santa Cruz, Calif.), anti-PCNA antibody (Santa Cruz Biotechnology), anti-GRP78 antibody (Santa Cruz Biotechnology), or anti-His tag antibody (Santa Cruz Biotechnology) at 4° C. The following day, unbound antibody was washed with 1×PBS containing 0.1% Tween-20 (1×PBST) and incubated with the corresponding Alexafluor 568 secondary antibodies (Life Technologies) for 1.5 hours at 37° C. Sections were rinsed again and incubated for 10 minutes with DAPI at 1 μg/mL to visualize the DNA in the cell nucleus. […]

GRP78 [8] = biological target: T2, GRP78; assay: Pull down assay with HUVEC plasma membrane extract; assay type: binding; parameters: Incubation of ISM with plasma membrane extract from HUVECs; endogenous in cells; host or cells: HUVEC plasma membrane fraction; details: plasma membrane extract from HUVECs
From the text: His-tagged ISM and its binding partners from plasma membrane extract were pulled down by Epitope Tag Protein Isolation Kit with separation columns purchased from μMACS (Bergisch Gladbach, Germany). For searching potential binding partners of ISM, eluants were subjected to SDS-PAGE and stained with coomassie blue. Excised bands were identified by MALDI-TOF-TOF mass spectrometry analysis.
as §1
Target sequence in this assay (P11021 19-654): as the sequence (P11021 19-654, species assumed) above

T1 sequence (P11021 19-654 limits assumed): as the sequence (P11021 19-654, species assumed) above

Q: How did the Kd [1] turn out when “Isthmin (ISM), recombinant His-tagged protein (from UniProt A2ATD1 30-454) (ligand)” was run?
A: 8.6 nM

Q: Which results are given for “FITC-RKD: FITC-CRKDC, disulfide bridge 1-5 ({FITC}-CRKDC; disulfide 1-5)”?
A: binding to 4T1 cell surface [2]: binds 4T1 breast cancer cell surface in vitro; uptake by cultured HUVECs (HUVECs [3]): efficiently taking up by cultured HUVECs; binding to cell-surface GRP78 by co-immunoprecipitation (GRP78 [4]; anti-FITC antibody, plasma membrane fraction of cultured HUVECs): binds cell-surface GRP78; cell types labelled in the tumor (B16 melanoma): Both tumor cells and tumor blood vessel endothelial cells are labeled; labelling of xenograft melanoma (B16 melanoma): preferentially labelled xenograft melanoma

Q: “cRAA: Negative control mutant peptide, sequence CRAAC, disulfide bridge 1-5 (disulfide 1-5) [reference compound]” was tested. Which “EC attachment and adhesion” value (ECs) did it give?
A: lost the ability to mediate EC adhesion

Q: And the “pro-apoptotic activity at 1 μM” value (endothelial cells (ECs); 1 μM peptide, cultured ECs with VEGF)?
A: almost no activity

Q: What about the “induction of EC apoptosis (pro-apoptotic activity)” value (endothelial cells (ECs); cultured ECs in the presence of VEGF, 24 h) of the same molecule?
A: completely destroyed the proapoptotic activity

Q: What about the “anti-angiogenic activity at 1 μM” value (HUVECs [5]; 1 μM peptide) of the same molecule?
A: no anti-angiogenic activity

Q: What about the “inhibition of EC tube-like structure formation on Matrigel” value (HUVECs [5]; dose-dependence) of the same molecule?
A: lost this activity

Q: And the “affinity for GRP78, fold less than cRKD” value (GRP78 [6]; relative to cRKD)?
A: about 50 fold

B1: Cyclic RAA peptide (cRAA) (peptide)
peptide: CRAAC
modifications: disulfide 1-5
notes: Mutant control of cRKD, with K and D both changed to A; also called control-cyclic RAA peptide
Q: B1 was tested. Which “fold lower affinity than cRKD” value [7] did it give?
A: ~50 fold

B2: ISM: Isthmin, a 60 kDa secreted angiogenesis inhibitor; recombinant His-tagged mouse protein (protein, UniProt A2ATD1 30-454, looked up)
Isthmin-1: SDRQDAAAGNNNLNLESDSTSETSFPLSKEAPEEHQVVHQPFPRQRFPPETGHPSLQRDGPRSFLLDLPNFPDLSKADINGQNPNIQVTIEVVDGPDSEAEKDQHPENKPSWSLPAPDWRAWWQRSLSLARTNSGDQDDKYDSTSDDSNFLSVPRGWDRPAPGHRTFETKEQPEYDSTDGEGDWSLWSVCSVTCGNGNQKRTRSCGYACIATESRTCDRPNCPGIEDTFRTAATEVSLLAGSEEFNATKLFEVDMDSCERWMSCKSEFLKKYMHKVINDLPSCPCSYPTEVAYSTADIFDRIKRKDFRWKDASGPKEKLEIYKPTARYCIRSMLSLESTTLAAQHCCYGDNMQLITRGKGAGTPNLISTEFSAELHYKVDVLPWIICKGDWSRYNEARPPNNGQKCTESPSDEDYIKQFQEAREY
modifications: His tag
notes: recombinant His-tagged mouse protein
Q: With B2 as the molecule, how does the tumor growth (B16F10 melanoma; 250 μg/mouse intravenous every 2 days, days 0-10, subcutaneous B16F10) read?
A: suppressed tumor growth

Q: What about the “vascularization (blood vessels supplying the tumor)” value (B16F10 melanoma; 250 μg/mouse intravenous, day 14) of the same molecule?
A: reduced vascularization

Q: And the “tumor angiogenesis, tumor cell proliferation and tumor cell apoptosis” value (B16F10 melanoma; immunofluorescence of tumor sections)?
A: suppress tumor angiogenesis, tumor cell proliferation and induce tumor cell apoptosis

Q: What about the “apoptosis of tumor cells and tumor ECs (CD31/TUNEL double staining)” value (B16F10 melanoma; tumor sections, compared to controls) of the same molecule?
A: both tumor cells as well as tumor ECs became apoptotic

Q: What about the “tumor vessel density (anti-CD31 immunofluorescence)” value (B16F10 melanoma; tumor tissue sections) of the same molecule?
A: obvious reduction of tumor vessel density

Q: What about the “binding partner of ISM identified by pull-down” value (GRP78 [8]) of the same molecule?
A: identified GRP78 as a ISM binding protein

Q: And the “ISM-GRP78 interaction by co-immunoprecipitation” value (GRP78 [4]; purified recombinant ISM and GRP78 proteins)?
A: confirmed the ISM-GRP78 interaction

Q: What about the Kd (GRP78 [6]; purified recombinant GRP78) of the same molecule?
A: 8.6 nM
